# Target: papain (UniProt P00784)
# Test: enzyme inhibition assay (Dixon plot); various amounts of recombinant protein with 10 ug papain (1.24 uM final in 350 ul), 0.1 M sodium phosphate pH 6.0, 1 mM EDTA, 2 mM beta-mercaptoethanol, 37°C, substrate BANA; Ki from plots of 1/v versus [I]
# Sequence of UniProt P00784 (P00784 134-345): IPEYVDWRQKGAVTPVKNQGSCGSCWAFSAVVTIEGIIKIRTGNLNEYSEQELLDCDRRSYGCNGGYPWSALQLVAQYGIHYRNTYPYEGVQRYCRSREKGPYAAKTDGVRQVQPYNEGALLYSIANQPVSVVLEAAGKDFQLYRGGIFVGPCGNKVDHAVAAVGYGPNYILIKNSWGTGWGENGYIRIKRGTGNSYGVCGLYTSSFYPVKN
row,Substance,Ki
1,"SiCYS, sesame seed group II phytocystatin (non-fusion recombinant) (natural protein)",19 nM
2,"SiCYS-N, N-terminal domain of SiCYS (non-fusion recombinant) (domain or fragment)",79 nM

# Source: article PMC5432954
